US20020037582A1 (published 2002)

T1: Gal4 DNA-BD-Grb14 fusion (full length Grb14, GRB14/pAS2.1)
T1 chain: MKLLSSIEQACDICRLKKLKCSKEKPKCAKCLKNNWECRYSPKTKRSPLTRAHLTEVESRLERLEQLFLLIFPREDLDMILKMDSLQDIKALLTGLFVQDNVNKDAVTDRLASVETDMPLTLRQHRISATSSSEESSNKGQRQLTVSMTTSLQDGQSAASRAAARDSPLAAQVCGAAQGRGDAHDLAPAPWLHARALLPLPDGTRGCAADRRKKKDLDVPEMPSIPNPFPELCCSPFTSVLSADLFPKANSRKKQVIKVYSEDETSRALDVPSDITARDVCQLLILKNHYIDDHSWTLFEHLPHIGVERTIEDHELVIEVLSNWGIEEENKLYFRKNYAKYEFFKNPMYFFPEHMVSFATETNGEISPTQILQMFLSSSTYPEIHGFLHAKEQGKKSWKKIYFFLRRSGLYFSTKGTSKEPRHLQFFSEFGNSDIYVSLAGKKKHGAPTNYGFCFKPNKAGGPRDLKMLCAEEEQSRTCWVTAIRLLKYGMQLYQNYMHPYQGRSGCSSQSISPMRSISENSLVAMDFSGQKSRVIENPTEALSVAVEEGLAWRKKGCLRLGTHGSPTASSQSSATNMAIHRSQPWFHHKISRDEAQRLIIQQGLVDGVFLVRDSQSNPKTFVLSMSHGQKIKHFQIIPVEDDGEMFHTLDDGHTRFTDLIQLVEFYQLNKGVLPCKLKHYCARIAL

B1: Nedd4 partial cDNA clone in pACT2 (CaLB domain together with the first 22 amino acids of the first WW domain) (other, human, UniProt P46934-4 1-212, looked up, not shown: large carriers)
chain: MATCAVEVFGLLEDEENSRIVRVRVIAGIGLAKKDILGASDPYVRVTLYDPMNGVLTSVQTKTIKKSLNPKWNEEILFRVHPQQHRLLFEVFDENRLTRDDFLGQVDVPLYPLPTENPRLERPYTFKDFVLHPRSHKSRVKGYLRLKMTYLPKTSGSEDDNAEQAEELEPGWVVLDQPDAACHLQQQQEPSPLPPGWEERQDILGRTYYVNH
B2: Gal4 DNA-BD fusion of the Grb14 central region (amino acids 110-437) in pAS2.1 (other, UniProt P04386 1-147, looked up)
chain: MKLLSSIEQACDICRLKKLKCSKEKPKCAKCLKNNWECRYSPKTKRSPLTRAHLTEVESRLERLEQLFLLIFPREDLDMILKMDSLQDIKALLTGLFVQDNVNKDAVTDRLASVETDMPLTLRQHRISATSSSEESSNKGQRQLTVSIKVYSEDETSRALDVPSDITARDVCQLLILKNHYIDDHSWTLFEHLPHIGVERTIEDHELVIEVLSNWGIEEENKLYFRKNYAKYEFFKNPMYFFPEHMVSFATETNGEISPTQILQMFLSSSTYPEIHGFLHAKEQGKKSWKKIYFFLRRSGLYFSTKGTSKEPRHLQFFSEFGNSDIYVSLAGKKKHGAPTNYGFCFKPNKAGGPRDLKMLCAEEEQSRTCWVTAIRLLKYGMQLYQNYMHPYQGRSGCSSQSISPMRSISENSLVAMDFSGQKSRVIENPTEALSVAVEEGLAWRKKGCLRLGTHGSPTASSQSSATNMAIHRSQ
B3: Htk partial cDNA clone in pACT2 (intracellular region and part of the extracellular domain) (receptor, human, UniProt P54760 436-987, looked up, not shown: large carriers)
chain: AVSDIRVTRSSPSSLSLAWAVPRAPSGAVLDYEVKYHEKGAEGPSSVRFLKTSENRAELRGLKRGASYLVQVRARSEAGYGPFGQEHHSQTQLDESEGWREQLALIAGTAVVGVVLVLVVIVVAVLCLRKQSNGREAEYSDKHGQYLIGHGTKVYIDPFTYEDPNEAVREFAKEIDVSYVKIEEVIGAGEFGEVCRGRLKAPGKKESCVAIKTLKGGYTERQRREFLSEASIMGQFEHPNIIRLEGVVTNSMPVMILTEFMENGALDSFLRLNDGQFTVIQLVGMLRGIASGMRYLAEMSYVHRDLAARNILVNSNLVCKVSDFGLSRFLEENSSDPTYTSSLGGKIPIRWTAPEAIAFRKFTSASDAWSYGIVMWEVMSFGERPYWDMSNQDVINAIEQDYRLPPPPDCPTSLHQLMLDCWQKDRNARPRFPQVVSALDKMIRNPASLKIVARENGGASHPLLDQRQPHYSAFGSVGEWLRAIKMGRYEESFAAAGFGSFELVSQISAEDLLRIGVTLAGHQKKILASVQHMKSQAKPGTPGGTGGPAPQY
B4: Gal4 DNA-BD fusion of the Grb14 N-terminus (amino acids 1-110) in pAS2.1 (other, UniProt P04386 1-147, looked up)
chain: MKLLSSIEQACDICRLKKLKCSKEKPKCAKCLKNNWECRYSPKTKRSPLTRAHLTEVESRLERLEQLFLLIFPREDLDMILKMDSLQDIKALLTGLFVQDNVNKDAVTDRLASVETDMPLTLRQHRISATSSSEESSNKGQRQLTVSMTTSLQDGQSAASRAAARDSPLAAQVCGAAQGRGDAHDLAPAPWLHARALLPLPDGTRGCAADRRKKKDLDVPEMPSIPNPFPELCCSPFTSVLSADLFPKANSRKKQVI
B5: original 2.2412 cDNA clone in pACT-2 (nucleotides 694-2664 of FIG. 1, polypeptide of 657 amino acids) (other, not shown: large carriers)
chain: ERLAYEFKGHSLLQAAREADVTRIKKHLSLEMVNFKHPQTHETALHCAAASPYPKRKQICELLLRKGANINEKTKEFLTPLHVASEKAHNDVVEVVVKHEAKVNALDNLGQTSLHRAAYCGHLQTCRLLLSYGCDPNIISLQGFTALQMGNENVQQLLQEGISLGNSEADRQLLEAAKAGDVETVKKLCTVQSVNCRDIEGRQSTPLHFAAGYNRVSVVEYLLQHGADVHAKDKGGLVPLHNACSYGHYEVAELLVKHGAVVNVADLWKFTPLHEAAAKGKYEICKLLLQHGADPTKKNRDGNTPLDLVKDGDTDIQDLLRGDAALLDAAKKGCLARVKKLSSPDNVNCRDTQGRHSTPLHLAAGYNNLEVAEYLLQHGADVNAQDKGGLIPLHNAASYGHVDVAALLIKYNASLNATDKWAFTPLHEAAQKGRTQLCALLLAHGADPTLKNQEGQTPLDLVSADDVSALLTAAMPPSALPSCYKPQVLNGVRSPGATADALSSGPSSPSSLSAASSLDNLSGSFSELSSVVSSSGTEGASSLEKKEVPGVDFSITQFVRNLGLEHLMDIFEREQITLDVLVEMGHKELKEIGINAYGHRHKLIKGVERLISGQQGLNPYLTLNTSGSGTILIDLSPDDKEFQSVEEEMQSTVREHR
B6: L-arginine:glycine amidinotransferase cDNA clone in pACT2 (protein)
chain: ASSRNSCAADDKATEPLPKDCPVSSYNEWDPLEEVIVGRAENACVPPFTIEVKANTYEKYWPFYQKQGGHYFPKDHLKKAVAEIEEMCNILKTEGVTVRRPDPIDWSLKYKTPDFESTGLYSAMPRDILIVVGNEIIEAPMAWRSRFFEYRAYRSIIKDYFHRGAKWTTAPKPTMADELYNQDYPIHSVEDRHKLAAQGKFVTTEFEPCFDAADFIRAGRDIFAQRSQVTNYLGIEWMRRHLAPDYRVHIISFKDPNPMHIDATFNIIGPGIVLSNPDRPCHQIDLFKKAGWTIITPPTPIIPDDHPLWMSSKWLSMNVLMLDEKRVMVDANEVPIQKMFEKLGITTIKVNIRNANSLGGGFHCWTCDVRRRGTLQSYLD

Key:
[1] = target: Gal4 DNA-BD-Grb14 fusion (full length Grb14, GRB14/pAS2.1) (S. cerevisiae) (UniProt P04386); assay: cell-based or functional assay
[2] = target: Gal4 DNA-BD-Grb14 fusion (full length Grb14, GRB14/pAS2.1) (S. cerevisiae, UniProt P04386 1-147; Q14449 1-540); assay: cell-based or functional assay
[3] = target: B5; assay: yeast two hybrid, liquid- or filter-based beta-galactosidase assays
Excerpt: (§1) These fragments spanned the following regions: N-terminus (“N”. amino acids 1-110), the central region (“C”) encompassing the mig10 homology and the “between PH and SH2” (BPS) domain (amino acids 110-437) and the N-terminal and central regions (“N+C”, amino acids 1-437). These plasmids were individually transformed into the yeast strain Y190 (MATα, ura3-52, his3-200, ade2-101, lys2-801, trp1-901, leu2-3, 112, gal4Δ, gal80Δ, cyh^r2, LYS2::GAL1UAS-HIS3TATA-HIS3, URA3::GAL1UAS-GAL1TATA-lacZ) and expression of the appropriately sized Gal4 DNA-BD fusion proteins confirmed by Western blotting.

[4] = target: B5; assay: yeast two hybrid in strain Y190, liquid- or filter-based beta-galactosidase assays
Excerpt: as §1

[5] = target: T1, Gal4 DNA-BD-Grb14 fusion (full length …)

Proteosome cDNA clone in pACT2 (from UniProt P04386 768-881)
Mean RLU (Liquid assay), beta-galactosidase activity [1]: 388 RLU

Somatostatin receptor cDNA clone in pACT2
Mean RLU (Liquid assay), beta-galactosidase activity [1]: 1450 RLU

B1
Mean RLU (Liquid assay), beta-galactosidase activity [2]: 2.86e+06 RLU

B2
binding result [3]: no binding

B3
Mean RLU (Liquid assay), beta-galactosidase activity [2]: 186000 RLU

B4
binding result [4]: binds

B5
Mean RLU (Liquid assay), beta-galactosidase activity [2]: 5.18e+06 RLU

B6
Colour intensity (Filter assay), beta-galactosidase [5]: +/-
Mean RLU (Liquid assay), beta-galactosidase activity [5]: 861 RLU
